{"source": "patent US20020068706A1", "about": "(GPC BIOTECH, published 2002)", "key": {"CDK4/cyclin D1 complex [1]": {"biological_target": "T1, CDK4/cyclin D1 complex (UniProt P11802 1-303; P24385 1-295)", "T1 sequence (P11802 whole entry, chain 1 of 2)": "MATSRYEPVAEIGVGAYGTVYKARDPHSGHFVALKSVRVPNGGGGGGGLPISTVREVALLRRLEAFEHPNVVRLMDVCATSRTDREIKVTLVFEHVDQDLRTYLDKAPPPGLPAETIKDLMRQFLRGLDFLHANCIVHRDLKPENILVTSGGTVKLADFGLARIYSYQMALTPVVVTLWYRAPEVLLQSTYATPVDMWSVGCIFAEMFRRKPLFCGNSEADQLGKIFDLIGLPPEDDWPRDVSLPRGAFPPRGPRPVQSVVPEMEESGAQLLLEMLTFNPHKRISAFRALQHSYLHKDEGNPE", "T1 sequence (P24385 whole entry, chain 2 of 2)": "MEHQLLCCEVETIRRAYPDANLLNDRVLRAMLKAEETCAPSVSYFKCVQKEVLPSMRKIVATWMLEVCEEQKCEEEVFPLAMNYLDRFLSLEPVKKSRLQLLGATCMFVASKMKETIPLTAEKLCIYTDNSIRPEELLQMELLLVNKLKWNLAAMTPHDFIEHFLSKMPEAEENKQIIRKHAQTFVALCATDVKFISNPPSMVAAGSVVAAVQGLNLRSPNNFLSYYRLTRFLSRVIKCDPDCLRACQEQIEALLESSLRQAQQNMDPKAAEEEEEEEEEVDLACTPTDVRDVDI", "assay": "cell-based or functional assay"}, "CDK2/cyclin E complex": {"biological_target": "CDK2/cyclin E complex (UniProt P24941 1-298)", "assay": "cell-based or functional assay"}, "CDK2/cyclin A complex": {"biological_target": "CDK2/cyclin A complex (UniProt P24941 1-298)", "assay": "cell-based or functional assay"}, "cdc2/cyclin B complex": {"biological_target": "cdc2/cyclin B complex (UniProt P06493 1-297)", "sequence (P06493 whole entry, one chain of several)": "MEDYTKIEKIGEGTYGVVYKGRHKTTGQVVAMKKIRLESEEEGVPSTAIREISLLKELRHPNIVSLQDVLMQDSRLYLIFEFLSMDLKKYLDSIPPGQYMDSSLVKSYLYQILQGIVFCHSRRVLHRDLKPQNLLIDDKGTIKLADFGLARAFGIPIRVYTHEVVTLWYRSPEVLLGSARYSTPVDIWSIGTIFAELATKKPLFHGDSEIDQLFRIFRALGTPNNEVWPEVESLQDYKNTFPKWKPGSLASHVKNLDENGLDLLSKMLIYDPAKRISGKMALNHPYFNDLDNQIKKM", "assay": "cell-based or functional assay"}, "CDK4/cyclin D1 complex [2]": {"biological_target": "T1, CDK4/cyclin D1 complex", "assay": "inhibition constant from in vitro kinase assay (Sf9 extract, Gst-Rb substrate)"}}, "data": [{"binder": "p16 (other, human, UniProt P42771 1-156, looked up, also called p16^Ink4/MTS1; p16^INK4A) MEPAAGSSMEPSADWLATAAARGRVEEVRALLEAGALPNAPNSYGRRPIQVMMMGSARVAELLLLHGAEPNCADPATLTRPVHDAAREGFLDTLVVLHRAGARLDVRDAWGRLPVDLAEELGHRDVARYLRAAAGGTRGSNHARIDAAEGPSDIPD", "values": [{"measurement": "IC50 of in vitro kinase assay (32P incorporation into Gst-Rb)", "setting": "CDK4/cyclin D1 complex [1]", "value": 250, "unit": "nM"}, {"measurement": "IC50 of in vitro kinase assay (32P incorporation into Gst-Rb)", "setting": "CDK2/cyclin E complex", "value": "> 500", "unit": "nM"}, {"measurement": "IC50 of in vitro kinase assay (32P incorporation into Gst-Rb)", "setting": "CDK2/cyclin A complex", "value": "> 500", "unit": "nM"}, {"measurement": "IC50 of in vitro kinase assay (32P incorporation into Gst-Rb)", "setting": "cdc2/cyclin B complex", "value": "> 500", "unit": "nM"}, {"measurement": "Ki", "setting": "CDK4/cyclin D1 complex [2]", "value": 75, "unit": "nM"}]}]}
